Molecular target: T1, E-His6融合蛋白 (寨卡病毒 (Zika virus), UniProt A0A024B7W1 292-693)
T1 construct: also called 寨卡病毒的E蛋白; E蛋白
Assay: ELISA screen of memory B cell culture supernatants on coated E-His6 fusion protein; the antibody genes were cloned from positive wells

T1 sequence (A0A024B7W1 292-693, tags left off): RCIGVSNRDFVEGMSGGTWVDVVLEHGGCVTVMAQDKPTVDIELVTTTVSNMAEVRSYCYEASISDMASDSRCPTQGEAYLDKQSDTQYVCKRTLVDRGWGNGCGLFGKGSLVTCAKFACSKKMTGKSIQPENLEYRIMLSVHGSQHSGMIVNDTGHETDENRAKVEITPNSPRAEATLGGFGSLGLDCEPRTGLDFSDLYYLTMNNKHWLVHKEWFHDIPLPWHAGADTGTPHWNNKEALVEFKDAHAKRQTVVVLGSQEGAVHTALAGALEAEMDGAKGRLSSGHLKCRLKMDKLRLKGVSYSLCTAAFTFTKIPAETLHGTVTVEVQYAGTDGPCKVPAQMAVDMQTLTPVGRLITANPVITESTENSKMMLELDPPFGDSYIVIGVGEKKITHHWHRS

B1: 单克隆抗体ZK2B10 (antibody, human IgG1, lambda, V domains shown)
VH: EVQLVQSGAEVKKPGASVKVSCKASGYTFTSGHTFPSYDINWVRQATGQGLEWMGWMNPNRGNTGYAQKFQGRVTMTRNTSINTAYMELSSLRSEDTAVYYCARVRSGTNYGSYYYYYYGMDVWGQGTTVTVSS
VL: SYELTQPPSASGTPGQRVTISCSGSSSNIGNNYVHWYQQLPGSAPKLLIYRNNQRPSGVPDRFSGSKSGTSGSLAISGLRSEDEADYYCASWDDSLSGHWVFGGGTKVTVLG
notes: also called ZK2B10抗体; IgG抗体
B1: binds.
